Measurements taken from patent US20140072613A1, “Compositions and Methods for Treating Cutaneous Scarring” (priority 2012, published 2014).

What was measured:
Experiment in all cases: biochemical
Format in all cases: biochemical
266 human kinases [1] = target: T1, 266 human kinases (Homo sapiens, UniProt Q8IYT8); conditions: ULK2(h); 100 μM
T1 sequence (Q8IYT8 1-1036): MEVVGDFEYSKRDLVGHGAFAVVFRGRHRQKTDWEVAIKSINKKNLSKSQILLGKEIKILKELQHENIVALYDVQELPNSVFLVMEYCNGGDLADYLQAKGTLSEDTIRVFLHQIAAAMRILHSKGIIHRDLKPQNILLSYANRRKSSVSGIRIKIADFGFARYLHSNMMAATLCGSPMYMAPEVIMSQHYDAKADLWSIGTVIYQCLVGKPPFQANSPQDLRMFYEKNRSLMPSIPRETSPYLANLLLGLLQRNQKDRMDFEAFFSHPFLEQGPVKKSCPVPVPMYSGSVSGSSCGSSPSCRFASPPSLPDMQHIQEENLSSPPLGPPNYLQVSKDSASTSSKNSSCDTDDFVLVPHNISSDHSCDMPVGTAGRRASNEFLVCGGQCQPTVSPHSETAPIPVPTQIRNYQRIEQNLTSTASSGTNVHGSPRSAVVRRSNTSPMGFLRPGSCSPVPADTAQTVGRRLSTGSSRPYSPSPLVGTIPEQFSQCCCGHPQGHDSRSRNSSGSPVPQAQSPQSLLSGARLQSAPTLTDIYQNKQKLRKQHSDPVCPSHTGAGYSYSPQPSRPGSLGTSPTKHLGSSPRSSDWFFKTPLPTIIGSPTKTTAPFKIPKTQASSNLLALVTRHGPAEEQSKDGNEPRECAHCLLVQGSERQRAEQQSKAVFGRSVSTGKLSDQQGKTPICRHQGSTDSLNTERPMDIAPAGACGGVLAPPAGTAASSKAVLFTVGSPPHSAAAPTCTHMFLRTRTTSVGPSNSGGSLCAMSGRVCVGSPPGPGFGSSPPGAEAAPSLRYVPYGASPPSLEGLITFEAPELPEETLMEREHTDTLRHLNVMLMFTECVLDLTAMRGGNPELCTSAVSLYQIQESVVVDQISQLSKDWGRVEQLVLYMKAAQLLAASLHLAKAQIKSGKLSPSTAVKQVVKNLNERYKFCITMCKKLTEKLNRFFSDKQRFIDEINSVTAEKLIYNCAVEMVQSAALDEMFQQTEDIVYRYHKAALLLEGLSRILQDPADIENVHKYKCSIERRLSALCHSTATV
In short: (§1)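 A filter-capture radiometric assay: phosphorylated cationic substrate binds an anionic membrane and is scintillation-counted, with values referenced to full-activity control.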

266 human kinases [2] = target: 266 human kinases (Homo sapiens, UniProt P16234); conditions: PDGFRα(h); 100 μM
In short: as §1

266 human kinases [3] = target: 266 human kinases (Homo sapiens, UniProt P10721, D816V); conditions: cKit(D816V)(h); 100 μM
In short: as §1

266 human kinases [4] = target: 266 human kinases (Homo sapiens, UniProt P54646); conditions: AMPKα2(h); 100 μM
In short: as §1

266 human kinases [5] = target: 266 human kinases (Homo sapiens, UniProt P11362); conditions: FGFR1(h); 100 μM
In short: as §1

266 human kinases [6] = target: 266 human kinases (Homo sapiens, UniProt Q96SB4); conditions: SRPK1(h); 100 μM
In short: as §1

266 human kinases [7] = target: 266 human kinases (Homo sapiens, UniProt O96017, I157T); conditions: CHK2(I157T)(h); 100 μM
In short: as §1

266 human kinases [8] = target: 266 human kinases (Homo sapiens, UniProt Q02763); conditions: Tie2(h); 100 μM
In short: as §1

266 human kinases [9] = target: T2, 266 human kinases (Homo sapiens, UniProt P36896); conditions: ALK4(h); 100 μM
T2 sequence (P36896 24-505): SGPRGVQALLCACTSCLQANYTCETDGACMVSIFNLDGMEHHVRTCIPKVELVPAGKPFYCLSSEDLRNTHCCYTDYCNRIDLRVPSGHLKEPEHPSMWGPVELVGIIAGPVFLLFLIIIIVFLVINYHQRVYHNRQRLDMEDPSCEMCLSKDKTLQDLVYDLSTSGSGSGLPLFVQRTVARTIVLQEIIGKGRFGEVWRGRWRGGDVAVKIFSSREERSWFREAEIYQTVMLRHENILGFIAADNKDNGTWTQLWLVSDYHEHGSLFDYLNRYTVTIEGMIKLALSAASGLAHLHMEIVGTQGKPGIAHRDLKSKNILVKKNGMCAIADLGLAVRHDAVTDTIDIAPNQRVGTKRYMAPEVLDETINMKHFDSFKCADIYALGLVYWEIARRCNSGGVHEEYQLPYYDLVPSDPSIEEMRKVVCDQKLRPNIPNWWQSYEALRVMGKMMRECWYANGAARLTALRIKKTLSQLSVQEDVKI
In short: as §1

266 human kinases [10] = target: 266 human kinases (Homo sapiens, UniProt O15530); conditions: PDK1(h); 100 μM
In short: as §1

Chain of 266 human kinases (Homo sapiens, UniProt Q96SB4) (Q96SB4 whole entry): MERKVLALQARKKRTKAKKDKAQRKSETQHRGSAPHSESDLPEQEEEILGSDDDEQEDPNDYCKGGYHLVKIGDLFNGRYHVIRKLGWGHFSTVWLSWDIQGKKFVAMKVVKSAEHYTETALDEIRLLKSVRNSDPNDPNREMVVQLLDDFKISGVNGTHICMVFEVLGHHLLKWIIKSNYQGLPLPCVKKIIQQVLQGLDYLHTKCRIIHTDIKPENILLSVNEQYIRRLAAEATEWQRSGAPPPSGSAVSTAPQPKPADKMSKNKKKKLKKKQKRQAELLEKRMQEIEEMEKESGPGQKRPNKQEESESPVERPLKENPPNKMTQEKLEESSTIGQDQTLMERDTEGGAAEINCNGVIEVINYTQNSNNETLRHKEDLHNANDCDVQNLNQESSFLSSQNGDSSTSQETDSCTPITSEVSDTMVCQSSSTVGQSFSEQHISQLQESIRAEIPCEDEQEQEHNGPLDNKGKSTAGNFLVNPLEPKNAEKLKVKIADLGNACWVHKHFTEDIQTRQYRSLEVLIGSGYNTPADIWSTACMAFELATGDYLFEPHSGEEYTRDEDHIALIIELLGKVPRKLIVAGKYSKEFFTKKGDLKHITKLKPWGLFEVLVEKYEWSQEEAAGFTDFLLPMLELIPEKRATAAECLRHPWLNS
Chain of 266 human kinases (Homo sapiens, UniProt O15530) (O15530 whole entry): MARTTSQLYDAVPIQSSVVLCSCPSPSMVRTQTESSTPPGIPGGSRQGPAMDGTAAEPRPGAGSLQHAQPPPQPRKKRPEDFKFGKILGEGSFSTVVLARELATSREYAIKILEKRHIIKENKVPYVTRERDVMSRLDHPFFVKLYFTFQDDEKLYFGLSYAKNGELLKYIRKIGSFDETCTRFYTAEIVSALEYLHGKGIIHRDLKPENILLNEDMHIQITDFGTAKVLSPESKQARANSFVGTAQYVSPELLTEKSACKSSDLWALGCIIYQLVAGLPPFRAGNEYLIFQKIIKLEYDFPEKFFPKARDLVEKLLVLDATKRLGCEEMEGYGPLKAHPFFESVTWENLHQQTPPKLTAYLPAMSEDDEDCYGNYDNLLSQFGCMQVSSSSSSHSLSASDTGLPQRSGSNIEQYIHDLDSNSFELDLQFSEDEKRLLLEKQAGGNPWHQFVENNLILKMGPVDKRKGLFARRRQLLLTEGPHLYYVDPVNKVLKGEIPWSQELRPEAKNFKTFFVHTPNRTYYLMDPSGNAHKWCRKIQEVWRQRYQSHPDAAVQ
Chain of 266 human kinases (Homo sapiens, UniProt P16234) (P16234 24-1089): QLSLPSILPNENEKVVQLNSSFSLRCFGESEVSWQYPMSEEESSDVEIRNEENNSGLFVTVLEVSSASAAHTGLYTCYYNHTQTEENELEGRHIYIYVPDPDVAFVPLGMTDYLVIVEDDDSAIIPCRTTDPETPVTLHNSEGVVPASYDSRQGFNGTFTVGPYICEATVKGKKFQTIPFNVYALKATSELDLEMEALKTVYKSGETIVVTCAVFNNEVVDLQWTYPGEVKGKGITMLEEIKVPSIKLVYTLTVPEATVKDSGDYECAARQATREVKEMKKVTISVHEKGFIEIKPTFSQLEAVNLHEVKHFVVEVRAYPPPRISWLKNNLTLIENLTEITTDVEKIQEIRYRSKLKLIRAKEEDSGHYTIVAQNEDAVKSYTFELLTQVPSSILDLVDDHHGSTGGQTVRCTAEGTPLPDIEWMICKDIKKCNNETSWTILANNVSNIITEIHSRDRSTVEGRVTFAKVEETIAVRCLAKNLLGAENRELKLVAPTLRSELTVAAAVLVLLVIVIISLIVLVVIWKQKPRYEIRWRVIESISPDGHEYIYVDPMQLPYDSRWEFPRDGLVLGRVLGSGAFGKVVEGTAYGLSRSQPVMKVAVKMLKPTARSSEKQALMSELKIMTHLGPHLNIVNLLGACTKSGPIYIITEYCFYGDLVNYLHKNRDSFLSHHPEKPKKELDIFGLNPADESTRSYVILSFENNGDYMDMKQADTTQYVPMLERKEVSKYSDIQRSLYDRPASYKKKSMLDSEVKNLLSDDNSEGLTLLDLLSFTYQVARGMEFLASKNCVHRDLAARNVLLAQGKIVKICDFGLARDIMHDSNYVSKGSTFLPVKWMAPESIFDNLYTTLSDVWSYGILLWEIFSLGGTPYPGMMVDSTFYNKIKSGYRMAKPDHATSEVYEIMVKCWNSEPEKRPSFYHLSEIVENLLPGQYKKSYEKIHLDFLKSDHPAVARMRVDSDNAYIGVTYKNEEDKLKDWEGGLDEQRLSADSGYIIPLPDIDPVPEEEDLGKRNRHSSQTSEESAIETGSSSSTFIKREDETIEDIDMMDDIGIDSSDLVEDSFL
Chain of 266 human kinases (Homo sapiens, UniProt P54646) (P54646 whole entry): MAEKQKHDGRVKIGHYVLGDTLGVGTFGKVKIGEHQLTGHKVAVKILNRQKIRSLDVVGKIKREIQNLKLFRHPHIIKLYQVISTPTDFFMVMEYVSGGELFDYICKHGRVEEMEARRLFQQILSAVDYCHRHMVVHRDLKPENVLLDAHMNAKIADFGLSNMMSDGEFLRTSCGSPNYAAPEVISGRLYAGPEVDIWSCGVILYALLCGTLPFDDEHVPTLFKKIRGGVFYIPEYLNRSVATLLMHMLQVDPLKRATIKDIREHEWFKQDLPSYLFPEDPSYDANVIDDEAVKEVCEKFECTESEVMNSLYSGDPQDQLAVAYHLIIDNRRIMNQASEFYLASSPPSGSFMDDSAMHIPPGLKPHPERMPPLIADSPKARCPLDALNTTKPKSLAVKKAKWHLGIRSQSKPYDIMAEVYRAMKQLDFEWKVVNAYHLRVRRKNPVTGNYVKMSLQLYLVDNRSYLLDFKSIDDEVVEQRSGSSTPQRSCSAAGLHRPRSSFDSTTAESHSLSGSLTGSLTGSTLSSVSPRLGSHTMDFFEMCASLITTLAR
Chain of 266 human kinases (Homo sapiens, UniProt Q02763) (Q02763 23-1124): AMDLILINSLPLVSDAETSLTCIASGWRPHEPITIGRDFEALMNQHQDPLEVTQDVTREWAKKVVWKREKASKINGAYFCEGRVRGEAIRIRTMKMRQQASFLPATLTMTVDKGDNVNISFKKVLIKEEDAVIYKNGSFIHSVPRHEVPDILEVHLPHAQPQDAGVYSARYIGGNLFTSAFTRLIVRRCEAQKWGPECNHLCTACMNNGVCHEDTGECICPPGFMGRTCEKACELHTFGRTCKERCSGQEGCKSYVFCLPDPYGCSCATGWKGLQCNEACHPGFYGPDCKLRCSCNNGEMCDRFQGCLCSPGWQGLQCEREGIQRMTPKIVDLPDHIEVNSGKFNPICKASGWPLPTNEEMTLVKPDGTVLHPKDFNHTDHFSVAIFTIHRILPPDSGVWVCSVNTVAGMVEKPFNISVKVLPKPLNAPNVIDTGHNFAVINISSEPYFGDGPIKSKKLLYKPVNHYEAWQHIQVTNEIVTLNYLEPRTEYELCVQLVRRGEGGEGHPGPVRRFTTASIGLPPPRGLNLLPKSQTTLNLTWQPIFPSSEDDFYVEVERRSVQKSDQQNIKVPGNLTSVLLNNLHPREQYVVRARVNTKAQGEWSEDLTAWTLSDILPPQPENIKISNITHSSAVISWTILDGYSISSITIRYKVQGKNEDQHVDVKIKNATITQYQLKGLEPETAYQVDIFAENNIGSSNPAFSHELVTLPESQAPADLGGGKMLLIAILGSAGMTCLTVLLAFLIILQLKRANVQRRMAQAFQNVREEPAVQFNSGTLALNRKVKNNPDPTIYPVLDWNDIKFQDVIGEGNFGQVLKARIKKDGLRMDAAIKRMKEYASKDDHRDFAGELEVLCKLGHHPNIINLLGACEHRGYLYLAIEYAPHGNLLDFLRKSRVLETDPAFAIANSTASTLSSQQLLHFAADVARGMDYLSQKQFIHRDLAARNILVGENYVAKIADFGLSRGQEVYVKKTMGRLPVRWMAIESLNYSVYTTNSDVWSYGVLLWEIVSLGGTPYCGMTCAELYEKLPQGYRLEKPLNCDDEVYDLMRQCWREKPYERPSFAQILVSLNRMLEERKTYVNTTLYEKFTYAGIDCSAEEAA
Chain of 266 human kinases (Homo sapiens, UniProt O96017, I157T) (O96017 whole entry I157T): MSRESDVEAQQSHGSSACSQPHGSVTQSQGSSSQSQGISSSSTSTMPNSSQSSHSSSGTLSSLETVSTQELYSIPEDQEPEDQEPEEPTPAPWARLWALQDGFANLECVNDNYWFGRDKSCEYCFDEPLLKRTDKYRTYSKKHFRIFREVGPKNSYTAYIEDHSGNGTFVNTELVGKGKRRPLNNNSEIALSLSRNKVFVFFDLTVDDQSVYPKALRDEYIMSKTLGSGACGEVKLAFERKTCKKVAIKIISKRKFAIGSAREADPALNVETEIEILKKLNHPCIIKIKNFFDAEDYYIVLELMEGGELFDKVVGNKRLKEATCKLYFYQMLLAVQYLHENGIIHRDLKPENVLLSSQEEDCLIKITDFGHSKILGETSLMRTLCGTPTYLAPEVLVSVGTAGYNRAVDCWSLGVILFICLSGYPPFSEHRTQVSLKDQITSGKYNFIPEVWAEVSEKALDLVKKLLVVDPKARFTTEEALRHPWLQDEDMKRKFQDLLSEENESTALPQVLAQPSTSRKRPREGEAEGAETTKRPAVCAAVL

Row | Sequence | % activity (266 human kinases [1]) | % activity (266 human kinases [2]) | % activity (266 human kinases [3]) | % activity (266 human kinases [4]) | % activity (266 human kinases [5]) | % activity (266 human kinases [6]) | % activity (266 human kinases [7]) | % activity (266 human kinases [8]) | % activity (266 human kinases [9]) | % activity (266 human kinases [10])
1 | HRRIKAWLKKIKALARQLGVAA (mammal) [MMI-0500] | 124% | 40% | 30% | 9% | 18% | 80% | 3% | 22% | 81% | 178%
2 | YARAAARQARAKALNRQLGVA (mammal) [MMI-0200] | 132% | 108% | 118% | 88% | 97% | 93% | 85% | 53% | 152% | 143%
